Experimental data published in article doi:10.1101/689042.

Tests used:
[1] = biological target: Sorbitol dehydrogenase SmoS from Sinorhizobium meliloti 1021 (Sinorhizobium meliloti 1021); assay: crystal structure
[2] = biological target: Sorbitol dehydrogenase SmoS from Sinorhizobium meliloti 1021 (Sinorhizobium meliloti 1021); assay: SEC

stoichiometry N [1]: 4 | stoichiometry N [2]: 4
Substance: Sorbitol dehydrogenase SmoS from Sinorhizobium meliloti 1021 (enzyme)
